Target: FtsZ-Alexa488 (Cys-FtsZ labeled with Alexa488-maleimide)
Assay: TIRF microscopy, single particle tracking

FtsZ-Cy5 (Cys-FtsZ labeled with Cy5-maleimide) (natural protein)
average lifetime of FtsZ monomers in the filament network: 7.16 s

Source: paper PMC4019675
